Experimental data from patent publication US20100144025A1.

These binders were tested against HLA-A24 molecule (the product of HLA-A*2402 gene) (human).

Row | Binder | -log Kd
1 | KLMKITAEW (modifications not checked) [SEQ ID NO 16] | 7.21 -log Kd
2 | TLYAVATTF (modifications not checked) [SEQ ID NO 11] | 7.58 -log Kd
3 | DWIPLALTI (modifications not checked) [SEQ ID NO 25] | 8 -log Kd
4 | IQKETLVTF (modifications not checked) [SEQ ID NO 18] | 7.24 -log Kd
5 | ELPETLETL (modifications not checked) [SEQ ID NO 9] | 7.01 -log Kd
6 | GLNPTAIFL (modifications not checked) [SEQ ID NO 8] | 6.39 -log Kd
7 | WYAQIQPHW (modifications not checked) [SEQ ID NO 1] | 8.64 -log Kd
8 | ALHQVFGAI (modifications not checked) [SEQ ID NO 19] | 6.05 -log Kd
9 | HWPKSHTLW (modifications not checked) [SEQ ID NO 7] | 8.66 -log Kd
10 | GFLNEDHWF (modifications not checked) [SEQ ID NO 20] | 6.76 -log Kd
11 | AFSGVSWTM (modifications not checked) [SEQ ID NO 2] | 8.19 -log Kd
12 | ALVAFLRFL (modifications not checked) [SEQ ID NO 21] | 5.68 -log Kd
13 | AYNHALSEL (modifications not checked) [SEQ ID NO 23] | 7.68 -log Kd
14 | ALSELPETL (modifications not checked) [SEQ ID NO 12] | 5.5 -log Kd
15 | AWLVHRQWF (modifications not checked) [SEQ ID NO 10] | 8.39 -log Kd
16 | PMSTYGWNL (modifications not checked) [SEQ ID NO 22] | 7.62 -log Kd
17 | PFPQSNAPI (modifications not checked) [SEQ ID NO 5] | 8.22 -log Kd
18 | YMPSVIEKM (modifications not checked) [SEQ ID NO 15] | 7.17 -log Kd

The binders below were run against HLA-A2 molecule (the product of HLA-A*0201 gene) (human).

Row | Binder | -log Kd
19 | RLITVNPIV (modifications not checked) [SEQ ID NO 31] | 5.64 -log Kd
20 | ELPETLETL (modifications not checked) [SEQ ID NO 9] | 6.32 -log Kd
21 | ILIRTGLLV (modifications not checked) [SEQ ID NO 33] | 6.53 -log Kd
22 | SLRPQPTEL (modifications not checked) [SEQ ID NO 34] | 5.05 -log Kd
23 | IVLEHGSCV (modifications not checked) [SEQ ID NO 27] | 5.74 -log Kd
24 | PLNEAIMAV (modifications not checked) [SEQ ID NO 29] | 6.49 -log Kd
25 | NLVRLQSGV (modifications not checked) [SEQ ID NO 30] | 4.7 -log Kd
26 | FQPESPSKL (modifications not checked) [SEQ ID NO 36] | 6.31 -log Kd
27 | ALSELPETL (modifications not checked) [SEQ ID NO 12] | 6.05 -log Kd
28 | ALHQVFGAI (modifications not checked) [SEQ ID NO 38] | 6.77 -log Kd
29 | YMPSVIEKM (modifications not checked) [SEQ ID NO 15] | 6.58 -log Kd
30 | FLIDGPETA (modifications not checked) [SEQ ID NO 35] | 6.05 -log Kd

The binders below were run against HLA-A2 molecule (the product of HLA-A*0206 gene) (human).

Row | Binder | -log Kd
31 | IVLEHGSCV (modifications not checked) [SEQ ID NO 27] | 6.02 -log Kd
32 | QILEENVEV (modifications not checked) [SEQ ID NO 50] | 5.61 -log Kd
33 | LALLAAFKV (modifications not checked) [SEQ ID NO 43] | 6.47 -log Kd
34 | HVLGRLITV (modifications not checked) [SEQ ID NO 45] | 6.25 -log Kd
35 | YVVIAILTV (modifications not checked) [SEQ ID NO 47] | 5.86 -log Kd
36 | LVISGLFPV (modifications not checked) [SEQ ID NO 41] | 6.61 -log Kd
37 | RTLRVLNLV (modifications not checked) [SEQ ID NO 49] | 5.97 -log Kd
38 | SVIEKMEAL (modifications not checked) [SEQ ID NO 48] | 6.37 -log Kd
